Columns and labels:
Conditions in all cases: La3+ as metal cofactor; PQQ enzyme; artificial electron acceptor PMS/DCPIP
purified protein = substrate: C=O; test: purified protein
[1] = substrate: CCO; test: PMS-mediated DCPIP reduction, Michaelis-Menten fit; assay type: biochemical, Methylorubrum extorquens
[2] = substrate: CO; test: PMS-mediated DCPIP reduction, Michaelis-Menten fit; assay type: biochemical, Methylorubrum extorquens

B1: XoxF1 MDH (XoxF1-La) (Methylorubrum extorquens AM1) (protein)
chain: NESVLKGVANPAEQVLQTVDYANTRYSKLDQINASNVKNLQVAWTFSTGVLRGHEGSPLVVGNIMYVHTPFPNIVYALDLDQGAKIVWKYEPKQDPSVIPVMCCDTVNRGLAYADGAILLHQADTTLVSLDAKSGKVNWSVKNGDPSKGETNTATVLPVKDKVIVGISGGEFGVQCHVTAYDLKSGKKVWRGYSIGPDDQLIVDPEKTTSLGKPIGKDSSLKTWEGDQWKTGGGCTWGWFSYDPKLDLMYYGSGNPSTWNPKQRPGDNKWSMTIWARNPDTGMAKWVYQMTPHDEWDFDGINEMILTDQKFDGKDRPLLTHFDRNGFGYTLDRATGEVLVAEKFDPVVNWATKVDLDKGSKTYGRPLVVSKYSTEQNGEDVNSKGICPAALGTKDQQPAAFSPKTGLFYVPTNHVCMDYEPFRVTYTPGQPYVGATLSMYPAPGSHGGMGNFIAWDNLQGKIKWSNPEQFSAWGGALATAGDVVFYGTLEGFLKAVDSKTGKELYKFKTPSGIIGNVMTYEHKGKQHVAVLSGVGGWAGIGLAAGLTDPNAGLGAVGGYAALSSYTNLGGQLTVFSLPNN
Km (purified protein): 96 µM
Km [1]: 639 µM
Km [2]: 44 µM
